Measurements: the RNAGym collection of RNA variant scans (doi:10.1073/pnas.2313332121)

B1: TPR t1 (parent)
chain: GACCAAUCUGCCCUCAGAGCUCGAGAACAUCUUCGGAUGCAGAGGAGGCAGGCUUCGGUGGCGCGAUAGCGCCAACGUCCUCAACCUCCAAUGCAUCCCACCACAUGAUGAUGCCUGAAGAGCCUUGGUUUUUUG

Variants of: B1
Assay: polymerase ribozyme fitness, log enrichment relative to wild type (log ratio); higher = more active; in vitro selection for triplet polymerase activity
How it was run: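 Frozen incubation at −7 °C formed the core of a single, triplicate in vitro selection round applied to PCR-built, transcribed mutant libraries of each subunit of a heterodimeric triplet polymerase ribozyme. Extended constructs were gel-excised, captured with streptavidin beads and amplified by RT-PCR, and input and output libraries were Illumina-sequenced with a filter of ≥10 input reads and ≥1 read per output. Fitness is the logarithm of genotype enrichment relative to wild-type enrichment, with inverse-variance-weighted replicate averaging, and the logarithm is base 2.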

Row | Variant | polymerase ribozyme fitness (log ratio)
1 | GACCAAACUGCCCUCAGAGCUCGAGAACAUCUUCGGAUGCAGAGGAGGCAGGCUUCGGUGGCGCGAUAGCGUCAACGUCCUCAACCUCCAACGCAUCCCACCACAUGAUGAUGCCUGAAGAGCCUUGGUUUUUUG | -0.872
2 | GACCAAACUGCCCUCAGAGCUCGAGAACAUCUUCGGAUGCAGAGGAGGCAGGCUUCGGUCGCGCGAUAGCGUCAACGUCCUCAACCUCCAAUGCAUCCCACCACAUGAUGAUGCCUGAAGAGCCUUGGUUUUUUG | 0.796
3 | GACCAAACUGCCCUCAGAGCUCGAGAACAUCUUCGGAUGCAGAGGAGGCAGGCUACGGUGGCGCGAUAGCGCCAACGUCCUCAACCUCCAAUGCAUCCCACCACAUGAUGAUGCCCGAAGAGCCUUGGUUUUUUG | -0.198
4 | GACCAAACUGCCCUCAGAGCUCGAGAACAUCUUCGGAUGCAGAGGAGGCAGGCUUCGGUGGCUCGAUAGCGCCAACCUCCUCAACCUCCAAGGCAUCCCACCACAUGAUGAUGCCUGAAGAGCCUUGGUUUUUUG | -5.12
5 | GACCAAACUGCCCUCAGAGCUCGAGAACAUCCUCGGAUGCAGAGGAGGCAGGCUCCGGUCGCGCGAUAGCGCCAACGUCCUCAACCUCCAAUGCAUCCCACCACAUGAUGAUGCCUGAAGAGCCUUGGAUUUUUG | -1.82
6 | GACCAACCUGCACUCAGAGCUCGAGAACAUCUUCGGAUGCAGAGGAGGCAGGCUUCGGUGGCGCGAUAGCGCCAAGGUCCUCAACCUCCAAUGCAUCCCACCACAUGAUGAUGCCUGAAGAGCCUUGGUUUUUUG | 0.0602
7 | GACCAACCUGCCAUCAGAGCUCGAGAACAUCUUCGGAUGCAGAGGAGGCAGGCUUCGGUGGCGCGAUAGCGCCAACGUCCUCAACCUCCAAUACAUCCCACAUCAUGAUGAUGCCUGAAGCGCCUUGGUUUUUUG | -4.79
8 | GACCAACUUGCCCUCAGAGCUCGAGAACAUCUUGGGAUGCAGAGGAGGCAGGCUUCGGUGGCGCGAUAGCGCUAACGUCCUCAACCUCCAAUGCAUCCCACCACAUGAUGAUGCCUGAAGAGCCUUGGUUUUUUG | -5.57
9 | GACCAAACUGCCCUCAGAGCUCGAGAACAUCUACGGAUGCAGAGGAGGCAGGCUUCGGUGGCGCGAUAGUGCCAACGUCCUCAACCUCCAAUGCAUCCCACCACAUGAUGAUGCCUGAAGAGCCUUGGUUUUUUG | -5.78
10 | GACCAACGUGCUCUCAGACCUCGAGAACAUCUUCGGAUGCAGAGGAGGCAGGCUUCGGUGGCGCGAUAGCGCCAACGUCCUCAACCUCCAAUGCAUCCCACCACAUGAUGAUGCAUGAAGAGCCUUGCUUUUUUG | -1.55
11 | GACCAAACUGCCCUCAGAGCUCGAGAACAUCUUCGGAUGCAGAGGAGGCAGGCUUCGGUGGCGCGAUAGCGCAAACGUCCUGAACCUCCAAUGCAUCCCACCACAUGAUGAUGCCUGAAGAGCCUUGGUUUUUUG | -0.0183
12 | GACCAACCUGCCAUCAGAGCUCGAGAAGAUCUUCGGAUGCAGAGGAGGCAGGCUUCGGUGGCGCGAUAUCGCCAACGUCCUCAACCUCCAAUGCAUCCCUCCACAUGAUGAUGCCUGAAGAGCCUUGGUUUUUUG | -2.4
13 | GACCAACAUGCCCUCAGAGCUCGAGAACAUCUUCGGAUGCAGAGGAGGCAGGCUUCGGUGGAGCGAUAGCGCCAACGUCCUCAACCUCCAAUGCAUCCCACCACAUGAUGAUGCCUGAAGAGCCUUGGUUUUUUG | -0.194
14 | GACCAAACUGCCCUCAGAGCUCGAGAACAUCUUCGGAUGCAGAGGAGGCAGACUUCGGUGGCGCGAUACCGCCAACGUCCUCAACCUCCAAUGCAUCCCACCACAUGAUGAUGCCUGAAGAGCCUUGGUUUUUUG | -2.28
15 | GACCAAACCGCUCUCAGAGCUCGAGAACAUCUUCGGAUGCAGAGGAGGCAGGCUUCCGUGGCUCGAUAGCGCCAACGUCCUCAACCUCCAAUGCAUCCCACCACAUGAUGAUGCCUGAAGAGCCUUGGUUUUUUG | -0.748
16 | GACCAAACUGCCCUCAGAGCUCGAGAACAUCUUCGGAUGCAGAGGAGGCAGGCUUCGGUGGCGCGAUAGCGCCAACGUCCUCAAUCUCCAAUGCAUCCCACCACAUGAUGAUGCCUGAAGAGCCGUGGUUUUUUG | -1.31
17 | GACCAAACUGCCCACAGAGCUCGAGAACAUCUUCGGAUGCAGAGGAGGCAGGCUUCGGUGGCGCGAUAGCGCCAACGUCCUCAACCUCCAAUGCAUCCCACCACAUGAUGAUGCCUGAGGAGCCUUGGUUUUUUG | 0.0679
18 | GACCAAACUGCCCUCAGAGCUCGAGAACAUCUUCGGAUACACAGCAGGCAGGCUUCGGUGGCGCGAUAGCGCCAACGUCCUCUACCUCCAAUGCAUCCCACCACAUGAUAAUGCCUGAAGAGCCUUGGUUUUUUG | -5.83
19 | GACCAACCUGCCUUAAGAGCUCGAGAACAUCUUCGGAUGCAGAGAAGGCAGGCUUCGGUGGCGCGAUAGCGACAACGUCCUCAACCUCCAAUGCAUCCCACCACAUGAUGAUGCCUGAAGAGCCUUGGUUUUUUG | -0.674
20 | GACCAACCUGCCCUCAGAGCUCGAGAACAUCUUCGGUUGCAGAGGAGGCAGGCUUCGGUAGCGCGAUAGCGCCAACGUCCUCAACCUCCAAUGCAUCCCACCACAUGAUGAUGCCUGAAGAGCCUUGGUUUUUUG | -0.133
21 | GACCAACCUGCCCUCUGAGCUCGAGAACAUCUUAGGAUGCAGAGGAGGGAGGCUUCGGUGGCGCGAUAGCGCCAACGUCCUCAACCUCCAAUGCAUCCCACCACAUGAUGAUGCCUGAAGAGCCUUGGUUUUUUG | -4.01
